What was measured:
[1] = target: soluble DC-SIGNR tetramer (entire extracellular domain including the α-helical neck region) (UniProt Q9H2X3); test: ELISA; DC-SIGN or DC-SIGNR (tetramer or monomer) coated (5, 2.5, 1.25, 0.625 µg/well, carbonate-bicarbonate buffer pH 9.6); ghA, ghB, ghC or mutants 2.5 µg/100 µl in 50 mM NaCl, 100 mM Tris-HCl pH 7.5, 5 mM CaCl2; 37°C […] then 4°C […]; detected with anti-MBP; percent binding against the wild-type module as 100%
[2] = target: soluble DC-SIGN tetramer (entire extracellular domain including the α-helical neck region) (UniProt Q9NNX6); test: as above
[3] = target: T1, soluble DC-SIGNR tetramer (entire extracellular domain including the α-helical neck region) (UniProt Q9H2X3 71-399); test: ELISA; DC-SIGN or DC-SIGNR (tetramer or monomer) coated (5, 2.5, 1.25, 0.625 µg/well, carbonate-bicarbonate buffer pH 9.6); ghA, ghB, ghC or mutants 2.5 µg/100 µl in 50 mM NaCl, 100 mM Tris-HCl pH 7.5, 5 mM CaCl2; 37°C 1.5 h then 4°C 1.5 h; detected with anti-MBP; percent binding against the wild-type module as 100%; conditions: both partners purified
T1 construct: DC-SIGNR (DC-SIGN-related), entire extracellular domain (α-helical neck region and carbohydrate recognition domain); also called DC-SIGNR ECD
T1 sequence (looked up): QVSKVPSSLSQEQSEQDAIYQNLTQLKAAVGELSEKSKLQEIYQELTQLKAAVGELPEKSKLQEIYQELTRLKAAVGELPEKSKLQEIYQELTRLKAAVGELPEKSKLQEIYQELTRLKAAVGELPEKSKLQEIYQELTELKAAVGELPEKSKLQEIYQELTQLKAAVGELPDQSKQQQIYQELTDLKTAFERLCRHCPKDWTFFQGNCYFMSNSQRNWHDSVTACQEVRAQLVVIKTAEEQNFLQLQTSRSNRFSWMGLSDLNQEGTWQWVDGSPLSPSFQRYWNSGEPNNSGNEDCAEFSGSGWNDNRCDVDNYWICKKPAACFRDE

[4] = target: T2, soluble DC-SIGN tetramer (entire extracellular domain including the α-helical neck region) (UniProt Q9NNX6 59-404); test: as above; conditions: both partners purified
T2 construct: DC-SIGN, entire extracellular domain (α-helical neck region and carbohydrate recognition domain); also called DC-SIGN ECD; tetrameric DC-SIGN
T2 sequence (looked up): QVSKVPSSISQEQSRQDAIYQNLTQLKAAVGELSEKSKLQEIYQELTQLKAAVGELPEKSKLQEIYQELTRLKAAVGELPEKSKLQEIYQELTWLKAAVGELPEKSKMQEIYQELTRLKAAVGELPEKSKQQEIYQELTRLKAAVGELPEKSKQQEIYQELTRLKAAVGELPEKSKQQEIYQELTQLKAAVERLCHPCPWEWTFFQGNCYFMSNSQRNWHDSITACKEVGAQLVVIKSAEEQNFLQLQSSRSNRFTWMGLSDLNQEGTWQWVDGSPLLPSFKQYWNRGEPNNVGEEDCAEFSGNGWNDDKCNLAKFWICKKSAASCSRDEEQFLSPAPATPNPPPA

“ghB substitution mutant Arg^B129Ala (from UniProt P02746 28-253) (domain or fragment)” gave a % binding (wild-type module = 100%) [1] of 92.5% and a % binding (wild-type module = 100%) [2] of 75%.

Work on “ghB substitution mutant Arg^B114Gln (from UniProt P02746 28-253) (domain or fragment)” yielded a % binding (wild-type module = 100%) [1] of 50.3%, a % binding (wild-type module = 100%) [2] of 52.5% and a % reduction in binding against wild-type ghB [2] of 80%.

“ghA substitution mutant Arg^A162Glu (from UniProt P02745 23-245) (domain or fragment)” showed a % binding (wild-type module = 100%) [1] of 94.8%, a % reduction in binding against wild-type ghA (at 5 µg of DC-SIGNR) [1] of 15% and a % binding (wild-type module = 100%) [2] of 66.4%.

Work on “ghB substitution mutant ArgB114Ala (from UniProt P02746 28-253) (domain or fragment)” yielded a % binding (wild-type module = 100%) [1] of 61.4%, a % binding (wild-type module = 100%) [2] of 57.4% and a % reduction in binding against wild-type ghB [2] of 80%.

“ghA substitution mutant Arg^A162Ala (from UniProt P02745 23-245) (domain or fragment)” was tested, and the % binding (wild-type module = 100%) [1] was 73.2% and the % binding (wild-type module = 100%) [2] was 77.7%.

With “ghC substitution mutant His^101Ala (from UniProt P02747 29-245) (domain or fragment)” the % binding (wild-type module = 100%) [1] was 113% and the % binding (wild-type module = 100%) [2] was 90.2%.

“ghB substitution mutant Arg^B129Glu (from UniProt P02746 28-253) (domain or fragment)” showed a % binding (wild-type module = 100%) [1] of 137% and a % binding (wild-type module = 100%) [2] of 93.9%.

Work on “ghB substitution mutant Arg^B163Glu (from UniProt P02746 28-253) (domain or fragment)” yielded a % binding (wild-type module = 100%) [1] of 65.7% and a % binding (wild-type module = 100%) [2] of 48.3%.

For “ghB substitution mutant Arg^B163Ala (from UniProt P02746 28-253) (domain or fragment)”, the % binding (wild-type module = 100%) [1] was 120% and the % binding (wild-type module = 100%) [2] was 68.8%.

“ghB substitution mutant His^B117Asp (from UniProt P02746 28-253) (domain or fragment)” was tested, and the % binding (wild-type module = 100%) [1] was 41% and the % binding (wild-type module = 100%) [2] was 36.4%.

“ghC substitution mutant Arg^156Glu (from UniProt P02747 29-245) (domain or fragment)” showed a % binding (wild-type module = 100%) [1] of 75.8% and a % binding (wild-type module = 100%) [2] of 101%.

In the case of “ghB substitution mutant Tyr^B175Leu (from UniProt P02746 28-253) (domain or fragment)”, the % binding (wild-type module = 100%) [1] is reported as 37.2%, the % decrease in binding against wild-type ghB (at 0.625 µg of DC-SIGNR) [1] is reported as less than 90% and the % binding (wild-type module = 100%) [2] is reported as 37.9%. For the same molecule, the % decrease in binding against wild-type ghB (at 0.625 µg of DC-SIGN) [2] was less than 90% and the % reduction in binding against wild-type ghB [2] was 82%.

“ghC substitution mutant Leu^170Glu (domain or fragment)” was tested, and the % binding (wild-type module = 100%) [1] was 79.8% and the % binding (wild-type module = 100%) [2] was 78.3%.

B1: recombinant globular head module ghA of human C1q, fused to maltose-binding protein (domain or fragment, UniProt P02745 110-245, looked up)
chain: KDQPRPAFSAIRRNPPMGGNVVIFDTVITNQEEPYQNHSGRFVCTVPGYYYFTFQVLSQWEICLSIVSSSRGQVRRSLGFCDTTNKGLFQVVSGGMVLQLQQGDQVWVEKDPKKGHIYQGSEADSVFSGFLIFPSA
notes: globular head region of the A chain of human C1q (ghA module); as I recall ghA is residues 88-223 of the mature A chain with MBP at the N-terminus; source: E. coli BL21, purified (amylose resin)
With B1 the “% binding (wild-type module = 100%)” value [3] was 100% and the “% binding (wild-type module = 100%)” value [4] was 100%.

B2: recombinant globular head module ghB of human C1q, fused to maltose-binding protein (domain or fragment, UniProt P02746 117-253, looked up)
chain: KATQKIAFSATRTINVPLRRDQTIRFDHVITNMNNNYEPRSGKFTCKVPGLYYFTYHASSRGNLCVNLMRGRERAQKVVTFCDYAYNTFQVTTGGMVLKLEQGENVFLQATDKNSLLGMEGANSIFSGFLLFPDMEA
notes: globular head region of the B chain of human C1q (ghB module); source: E. coli BL21, purified (amylose resin)
For B2, the “% binding (wild-type module = 100%)” value [3] was 100% and the “% binding (wild-type module = 100%)” value [4] was 100%.

B3: ghB substitution mutant Leu^B136Gly (domain or fragment)
chain: KATQKIAFSATRTINVPLRRDQTIRFDHVITNMNNNYEPRSGKFTCGVPGLYYFTYHASSRGNLCVNLMRGRERAQKVVTFCDYAYNTFQVTTGGMVLKLEQGENVFLQATDKNSLLGMEGANSIFSGFLLFPDMEA
With B3 the “% binding (wild-type module = 100%)” value [3] was 54% and the “% binding (wild-type module = 100%)” value [4] was 47.7%.

B4: recombinant globular head module ghC of human C1q, fused to maltose-binding protein (domain or fragment, UniProt P02747 115-245, looked up)
chain: KQKFQSVFTVTRQTHQPPAPNSLIRFNAVLTNPQGDYDTSTGKFTCKVPGLYYFVYHASHTANLCVLLYRSGVKVVTFCGHTSKTNQVNSGGVLLRLQVGEEVWLAVNDYYDMVGIQGSDSVFSGFLLFPD
notes: globular head region of the C chain of human C1q (ghC module); as I recall ghC is residues 87-217 of the mature C chain with MBP at the N-terminus; source: E. coli BL21, purified (amylose resin)
In the case of B4, the “% binding (wild-type module = 100%)” value [3] is reported as 100% and the “% binding (wild-type module = 100%)” value [4] is reported as 100%.

Reference: article PMC5177617, “Complement Protein C1q Interacts with DC-SIGN via Its Globular Domain and Thus May Interfere with HIV-1 Transmission” (Frontiers in Immunology, 2016)
